According to patent US20100297135A1 (CRC FOR ASTHMA AND AIRWAYS, published 2010):

Legend:
murine GM-CSF = molecular target: T1, murine GM-CSF (murine, UniProt P01587 18-141); experiment: semi-quantitative ELISA (data not shown)
T1 construct: also called wild type murine GM-CSF
T1 sequence (looked up): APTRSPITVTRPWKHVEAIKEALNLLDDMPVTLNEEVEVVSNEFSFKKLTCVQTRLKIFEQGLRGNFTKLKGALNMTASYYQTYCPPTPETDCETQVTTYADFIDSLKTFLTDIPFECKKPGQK

[1] = molecular target: T2, human GM-CSF mutant M2 (R24 to M37 replaced by murine sequence) (human); experiment: semi-quantitative ELISA; GM-CSF polypeptide coated in 2-fold dilutions (x axis = coating concentration), 4K21 fixed at 12.5 ng/ml, goat anti-mouse IgG-HRP, absorbance 450 nm
T2 construct: The flanking ranges are derived from the stated region
T2 sequence (P04141 other isoform, or with tags, fused parts or gaps mutant): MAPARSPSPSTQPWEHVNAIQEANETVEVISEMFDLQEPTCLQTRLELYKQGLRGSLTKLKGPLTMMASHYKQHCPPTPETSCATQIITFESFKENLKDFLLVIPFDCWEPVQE
Protocol: (§1) The binding analysis of 4K21 to the mutant GM-CSF polypeptides M1 to M5b was performed using a semi-quantitative ELISA. Approximately equal amounts of GM-CSF were used to coat a Maxisorb (Nunc. Cat #464718) 384 well plate and serially diluted 2-fold to the bottom of the plate (16 times). Coating was performed overnight at room temperature. Plates were washed 3 times with wash buffer (1×PBS, 0.05% tween) and blocked for 1 hr at 37° C. with PBS, 1% BSA solution. Plates were then washed 3 times with wash buffer. […] The plates were washed 3 times with wash buffer then secondary antibody, HRP conjugated goat anti mouse IgG (Jackson Cat #115-036-062) for 4K21 and rabbit anti rat IgG (BD, cat#P0450) for the BD commercial antibody was added to the wells at 1/5000 dilution and incubated at 37° C. for 1 hr. Plates were washed 4 times following which BD OptEIA TMB substrate (Cat #555214), prepared according to the manufacturer's instructions, was added to the wells and incubated at room temperature for 10 minutes. The reaction was stopped with 1M sulphuric acid and the plate read on a Tecan plate reader at 450 nm with reference filter at 620 nm.

[2] = molecular target: human GM-CSF alanine mutant I101A (human, UniProt P04141 18-144); experiment: semi-quantitative ELISA; GM-CSF polypeptide coated in serial dilutions (x axis = log coating concentration, no unit), 4K21 fixed at 12.5 ng/ml, goat anti-mouse IgG-HRP, absorbance
Chain of human GM-CSF alanine mutant I101A (P04141 other isoform, or with tags, fused parts or gaps I101A I101A limits assumed): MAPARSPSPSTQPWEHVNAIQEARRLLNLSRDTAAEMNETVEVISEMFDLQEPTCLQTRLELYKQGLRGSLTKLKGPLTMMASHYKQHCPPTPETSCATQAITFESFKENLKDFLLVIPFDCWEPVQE
Protocol: as §1
(§2) Binding analysis was carried out essentially as described above with the exception of the method of quantitation. The BD antibody was used to quantitate the relative expression of the alanine mutants as none of these mutants were in the M2 binding epitope of the BD antibody. […] The binding was then compared to 4K21 used at 12.5 ng/ml with the secondary antibody being goat anti-mouse IgG-HRP antibody (Cat #115-036-062) at 1/2500 dilution.

[3] = molecular target: human GM-CSF alanine mutant C89A (human, UniProt P04141 18-144); experiment: as above
Chain of human GM-CSF alanine mutant C89A (P04141 other isoform, or with tags, fused parts or gaps C89A C89A limits assumed): as the sequence (P04141 other isoform, or with tags, fused parts or gaps I101A I101A limits assumed) above, with C89A, A101I counted along it
Protocol: as §1, §2

T99A = molecular target: T3, T99A; experiment: as above
T3 construct: also called human GM-CSF alanine mutant T99A; the BD entry of the legend box prints 'T97A'
T3 sequence (single chain, as listed by the source T99A T99A): as the sequence (P04141 other isoform, or with tags, fused parts or gaps I101A I101A limits assumed) above, with T99A, A101I counted along it
Protocol: as §1, §2

Q100A = molecular target: T4, Q100A; experiment: as above
T4 construct: also called human GM-CSF alanine mutant Q100A
T4 sequence (single chain, as listed by the source Q100A Q100A): as the sequence (P04141 other isoform, or with tags, fused parts or gaps I101A I101A limits assumed) above, with Q100A, A101I counted along it
Protocol: as §1, §2

S96A = molecular target: T5, S96A; experiment: as above
T5 construct: also called human GM-CSF alanine mutant S96A
T5 sequence (single chain, as listed by the source S96A S96A): as the sequence (P04141 other isoform, or with tags, fused parts or gaps I101A I101A limits assumed) above, with S96A, A101I counted along it
Protocol: as §1, §2

wild type human GM-CSF [4] = molecular target: T6, wild type human GM-CSF (human, UniProt P04141 18-144); experiment: cell-based or functional assay
T6 sequence (P04141 other isoform, or with tags, fused parts or gaps limits assumed): as the sequence (P04141 other isoform, or with tags, fused parts or gaps I101A I101A limits assumed) above, with A101I counted along it

wild type human GM-CSF [5] = molecular target: T6, wild type human GM-CSF; experiment: SPR (Biacore), human GM-CSF coated on CM5 chip, antibody injected; GM-CSF coated onto CM5 chip, antibody injected
Protocol: (§3) Recombinant human GM-CSF was coated onto a CM5 chip to determine the binding kinetics of 4K21 mAb. An uncoated flow cell was used as a reference. The antibody, prepared in HBS-EP at concentrations of 66.7 nM to 4.17 nM with 2-fold serial dilution, was injected for 2 minutes with a stabilisation time of 10 minutes and dissociation time of 15 minutes. The BIACore kinetic analysis wizard was run to determine each antibody's association (ka [1/Ms]), dissociation (kd[1/s]) and affinity (KD [nM]) to GM-CSF. […] Moreover, binding of 4K21 mAb to human GM-CSF is highly specific.

wild type human GM-CSF [6] = molecular target: T6, wild type human GM-CSF; experiment: SPR (Biacore), human GM-CSF coated on CM5 chip, antibody injected
Protocol: as §3

wild type human GM-CSF [7] = molecular target: T6, wild type human GM-CSF; experiment: SPR (Biacore), alternative method of antibody capture; alternative method of antibody capture

B1: murine anti-human GM-CSF monoclonal antibody 4K21-O11-E14 (antibody, V domains shown)
VH: EVQLVESGGGLVKSGGSLKLSCAASGFAFSAYDMSWVRQTPEKRLELVAYISSGGSSFYYPDTVKGRFTISRDNAKNTLYLQMSSLKSEDTAMYYCTRHLGFDYWGQGTTLTVSS
VL: DVVMTQTPLSLPVSLGDQASISCRSSQSLVNSNGNTYLHWFLQKPGQSPKLLIYKVSNRFSGVPDRFSGSGSGTDFTLKISRVEAEDLGVYFCSQSTHVPPTFGGGTKLEIK
notes: Murine monoclonal antibody from a hybridoma (ECACC 07051601), detected with anti-mouse IgG; also called 4K21 mAb; mAb 4K21
B1 was tested, and the binding result (murine GM-CSF) was “no binding”, the “EC50 (read off the curve)” value [1] was about 20 µg/mL and the binding result [2] was “binds”. B1: binds [3]; binds (T99A); binds (Q100A). The binding result (S96A) was “binds”, the “IC50, neutralisation of human GM-CSF dependent TF-1 cell growth (3H-thymidine)” value (wild type human GM-CSF [4]) was about 0.308 nM and the Kd (wild type human GM-CSF [5]) was about 0.2 nM. The Ka (wild type human GM-CSF [6]) was over 5.9e+09 M⁻¹, the Kd (wild type human GM-CSF [6]) was under 0.17 nM and the koff (wild type human GM-CSF [6]) was under 1e-05 s⁻¹. For the same binder, the kon (wild type human GM-CSF [6]) was 59000 M⁻¹ s⁻¹ and the Kd (wild type human GM-CSF [7]) was about 0.43 nM.
